Laboratory results published in patent US9993529B2, “Stable formulations of a hyaluronan-degrading enzyme” (Halozyme, Inc., priority 2011, dated 2018).
Read-outs that look alike come from different tables or passages of the source.

How the values were obtained:
rHuPH20 = biological target: T1, rHuPH20 (Homo sapiens, UniProt P38567); settings: for retained % of the original activity / rHuPH20 activity (initial 600 U/mL): 75 mM NaCl
T1 sequence (P38567 36-482): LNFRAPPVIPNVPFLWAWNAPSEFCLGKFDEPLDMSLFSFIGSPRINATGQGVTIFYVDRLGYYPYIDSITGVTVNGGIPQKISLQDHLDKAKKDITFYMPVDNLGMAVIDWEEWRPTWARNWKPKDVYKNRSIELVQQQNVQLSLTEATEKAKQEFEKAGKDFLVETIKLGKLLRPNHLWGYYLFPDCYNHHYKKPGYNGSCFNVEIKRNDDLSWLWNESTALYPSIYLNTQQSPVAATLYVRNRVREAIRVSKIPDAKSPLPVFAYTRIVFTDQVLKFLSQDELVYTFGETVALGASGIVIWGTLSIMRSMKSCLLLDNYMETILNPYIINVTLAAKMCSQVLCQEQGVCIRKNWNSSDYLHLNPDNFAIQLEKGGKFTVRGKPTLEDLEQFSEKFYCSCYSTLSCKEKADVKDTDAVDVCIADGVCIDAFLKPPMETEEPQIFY
Protocol: The activity of a hyaluronan degrading enzyme can be assessed using methods well known in the art. […] A Hyaluronidase Reference Standard (USP) or National Formulary (NF) Standard Hyaluronidase solution can be used in an assay to ascertain the activity, in units, of any hyaluronidase. In one example, activity is measured using a microturbidity assay. […] The turbidity of the resulting sample is measured at 640 nm after an additional development period.

[1] = Dynamic light scattering, particle size and apparent melting temperature of rHuPH20; assay type: physicochemical; parameters: unit not given here
[2] = Differential scanning calorimetry, Tm of rHuPH20; assay type: physicochemical; settings: DSC, presence of […] m-cresol
[3] = 1 week 30° C., pH 7.1, 10 mg/mL HA

B1: rHuPH20: secreted soluble recombinant human PH20 hyaluronidase expressed in CHO cells (nucleic acid encoding amino acids 36-482 of SEQ ID NO:1) (protein, listed as Homo sapiens)
chain: T1 sequence (P38567 36-482)
modifications: precursor human PH20
rHuPH20 enzymatic activity (rHuPH20; 1 mM methionine, 30° C., one month): 525 U/mL | rHuPH20 enzymatic activity (rHuPH20; 20 mM methionine, 30° C., one month): 522 U/mL | retained % of the original activity (rHuPH20; 1 week 30° C., pH 7.1, 1 mg/mL HA): 57% | % of the original rHuPH20 remained (rHuPH20; 1 week 30° C., pH 7.1, 5.5 mg/mL HA, 100 mM NaCl): 68% | rHuPH20 activity (initial 600 U/mL) (rHuPH20; [3]): 510 U/mL | retained % of the original activity (rHuPH20; [3]): 85% | rHuPH20 enzymatic activity (rHuPH20; 2-8° C., 5 Months, pH 7.0, 50 mM NaCl): 494.4796 | rHuPH20 enzymatic activity (rHuPH20; 2-8° C., 5 Months, pH 7.0, 80 mM NaCl): 575.3274 | rHuPH20 enzymatic activity (rHuPH20; 2-8° C., 5 Months, pH 7.0, 110 mM NaCl): 615.3546 | rHuPH20 enzymatic activity (rHuPH20; 2-8° C., 5 Months, pH 7.0, 140 mM NaCl): 582.4274 | rHuPH20 enzymatic activity (rHuPH20; 2-8° C., 5 Months, pH 7.2, 50 mM NaCl): 481.6035 | rHuPH20 enzymatic activity (rHuPH20; 2-8° C., 5 Months, pH 7.2, 80 mM NaCl): 566.2521 | rHuPH20 enzymatic activity (rHuPH20; 2-8° C., 5 Months, pH 7.2, 110 mM NaCl): 593.2027 | rHuPH20 enzymatic activity (rHuPH20; 2-8° C., 5 Months, pH 7.2, 140 mM NaCl): 585.9948 | rHuPH20 enzymatic activity (rHuPH20; 2-8° C., 5 Months, pH 7.4, 50 mM NaCl): 526.6628 | rHuPH20 enzymatic activity (rHuPH20; 2-8° C., 5 Months, pH 7.4, 80 mM NaCl): 564.7769 | rHuPH20 enzymatic activity (rHuPH20; 2-8° C., 5 Months, pH 7.4, 110 mM NaCl): 618.3856 | rHuPH20 enzymatic activity (rHuPH20; 2-8° C., 5 Months, pH 7.4, 140 mM NaCl): 585.9813 | rHuPH20 enzymatic activity (rHuPH20; 2-8° C., 5 Months, pH 7.6, 80 mM NaCl): 546.4209 | rHuPH20 enzymatic activity (rHuPH20; 2-8° C., 5 Months, pH 7.6, 110 mM NaCl): 581.6326 | rHuPH20 enzymatic activity (rHuPH20; 2-8° C., 5 Months, pH 7.6, 140 mM NaCl): 594.6197 | rHuPH20 enzymatic activity (rHuPH20; 2-8° C., 9 Months, pH 7.0, 50 mM NaCl): 436.5115 | rHuPH20 enzymatic activity (rHuPH20; 2-8° C., 9 Months, pH 7.0, 80 mM NaCl): 513.9692 | rHuPH20 enzymatic activity (rHuPH20; 2-8° C., 9 Months, pH 7.0, 110 mM NaCl): 551.0218 | rHuPH20 enzymatic activity (rHuPH20; 2-8° C., 9 Months, pH 7.0, 140 mM NaCl): 554.6513 | rHuPH20 enzymatic activity (rHuPH20; 2-8° C., 9 Months, pH 7.2, 50 mM NaCl): 451.8324 | rHuPH20 enzymatic activity (rHuPH20; 2-8° C., 9 Months, pH 7.2, 80 mM NaCl): 518.0740 | rHuPH20 enzymatic activity (rHuPH20; 2-8° C., 9 Months, pH 7.2, 110 mM NaCl): 553.1847 | rHuPH20 enzymatic activity (rHuPH20; 2-8° C., 9 Months, pH 7.2, 140 mM NaCl): 536.7846 | rHuPH20 enzymatic activity (rHuPH20; 2-8° C., 9 Months, pH 7.4, 50 mM NaCl): 466.1871 | rHuPH20 enzymatic activity (rHuPH20; 2-8° C., 9 Months, pH 7.4, 80 mM NaCl): 509.9032 | rHuPH20 enzymatic activity (rHuPH20; 2-8° C., 9 Months, pH 7.4, 110 mM NaCl): 560.4847 | rHuPH20 enzymatic activity (rHuPH20; 2-8° C., 9 Months, pH 7.4, 140 mM NaCl): 542.4534 | rHuPH20 enzymatic activity (rHuPH20; 2-8° C., 9 Months, pH 7.6, 50 mM NaCl): 464.8964 | rHuPH20 enzymatic activity (rHuPH20; 2-8° C., 9 Months, pH 7.6, 80 mM NaCl): 515.3382 | rHuPH20 enzymatic activity (rHuPH20; 2-8° C., 9 Months, pH 7.6, 110 mM NaCl): 531.9202 | rHuPH20 enzymatic activity (rHuPH20; 2-8° C., 9 Months, pH 7.6, 140 mM NaCl): 523.5385 | rHuPH20 enzymatic activity (rHuPH20; insulin/rHuPH20 follow up study, starting): 650 U/mL | rHuPH20 activity (initial 600 U/mL) (rHuPH20; rHuPH20/insulin, 1 week 30° C., pH 7.1, 1 mg/mL HA): 341 U/mL | rHuPH20 enzymatic activity (rHuPH20; regular insulin/rHuPH20, 2-8° C., 5 Months, pH 7.6, 50 mM NaCl): 508.0571 | Average particle size (DLS) ([1]; 20 ° C.): 9.48 | Average particle size (DLS) ([1]; 22 ° C.): 9.19 | Average particle size (DLS) ([1]; 24 ° C.): 9.89 | Average particle size (DLS) ([1]; 26 ° C.): 9.96 | Average particle size (DLS) ([1]; 28 ° C.): 9.27 | Average particle size (DLS) ([1]; 30 ° C.): 8.94 | Average particle size (DLS) ([1]; 32 ° C.): 8.96 | Average particle size (DLS) ([1]; 34 ° C.): 9.42 | Average particle size (DLS) ([1]; 36 ° C.): 9.28 | Average particle size (DLS) ([1]; 38 ° C.): 8.91 | Average particle size (DLS) ([1]; 40 ° C.): 9.39 | Average particle size (DLS) ([1]; 42 ° C.): 9.72 | Average particle size (DLS) ([1]; 44 ° C.): 11.36 | Average particle size (DLS) ([1]; 46 ° C.): 13.08 | Average particle size (DLS) ([1]; 48 ° C.): 21.35 | Average particle size (DLS) ([1]; 50 ° C.): 22.74 | Average particle size (DLS) ([1]; 52 ° C.): 28.50 | Average particle size (DLS) ([1]; 54 ° C.): 32.95 | Average particle size (DLS) ([1]; 56 ° C.): 37.01 | reduction of Tm of rHuPH20 [2]: about 2 °C
